Laboratory results from EP0256654B1.

Assays:
[1] = biological target: partially purified 17-1A antigen (isolated from SW116 cells) (human) (UniProt P16422); test: competition with 125I murine 17-1A on plates coated with partially purified 17-1A antigen; 50% binding value
[2] = biological target: partially purified 17-1A antigen (isolated from SW116 cells) (human) (UniProt P16422); test: cold murine 17-1A competing with 125I murine 17-1A on plates coated with partially purified 17-1A antigen; 50% binding value

Substance	IC50 [1] [mg/L]	IC50 [2] [mg/L]
G1K 17-1A Chimeric IgG (from UniProt P01857 1-330) (antibody)	0.3	–
murine monoclonal antibody 17-1A	–	0.16
